The text below walks through data of IntAct's records for PubMed 19966303.

Sequences and labels used below:
B1: Phospholipid-transporting ATPase DNF1 (Saccharomyces cerevisiae), P32660 (parent)
chain: MSGTFHGDGHAPMSPFEDTFQFEDNSSNEDTHIAPTHFDDGATSNKYSRPQVSFNDETPKNKREDAEEFTFNDDTEYDNHSFQPTPKLNNGSGTFDDVELDNDSGEPHTNYDGMKRFRMGTKRNKKGNPIMGRSKTLKWARKNIPNPFEDFTKDDIDPGAINRAQELRTVYYNMPLPKDMIDEEGNPIMQYPRNKIRTTKYTPLTFLPKNILFQFHNFANVYFLVLIILGAFQIFGVTNPGLSAVPLVVIVIITAIKDAIEDSRRTVLDLEVNNTKTHILEGVENENVSTDNISLWRRFKKANSRLLFKFIQYCKEHLTEEGKKKRMQRKRHELRVQKTVGTSGPRSSLDSIDSYRVSADYGRPSLDYDNLEQGAGEANIVDRSLPPRTDCKFAKNYWKGVKVGDIVRIHNNDEIPADIILLSTSDTDGACYVETKNLDGETNLKVRQSLKCTNTIRTSKDIARTKFWIESEGPHSNLYTYQGNMKWRNLADGEIRNEPITINNVLLRGCTLRNTKWAMGVVMFTGGDTKIMLNSGITPTKKSRISRELNFSVVINFVLLFILCFVSGIANGVYYDKKGRSRFSYEFGTIAGSAATNGFVSFWVAVILYQSLVPISLYISVEIIKTAQAAFIYGDVLLYNAKLDYPCTPKSWNISDDLGQVEYIFSDKTGTLTQNVMEFKKCTINGVSYGRAYTEALAGLRKRQGIDVETEGRREKAEIAKDRDTMIDELRALSGNSQFYPEEVTFVSKEFVRDLKGASGEVQQRCCEHFMLALALCHSVLVEANPDNPKKLDLKAQSPDEAALVATARDVGFSFVGKTKKGLIIEMQGIQKEFEILNILEFNSSRKRMSCIVKIPGLNPGDEPRALLICKGADSIIYSRLSRQSGSNSEAILEKTALHLEQYATEGLRTLCIAQRELSWSEYEKWNEKYDIAAASLANREDELEVVADSIERELILLGGTAIEDRLQDGVPDCIELLAEAGIKLWVLTGDKVETAINIGFSCNLLNNEMELLVIKTTGDDVKEFGSEPSEIVDALLSKYLKEYFNLTGSEEEIFEAKKDHEFPKGNYAIVIDGDALKLALYGEDIRRKFLLLCKNCRAVLCCRVSPSQKAAVVKLVKDSLDVMTLAIGDGSNDVAMIQSADVGIGIAGEEGRQAVMCSDYAIGQFRYLARLVLVHGRWSYKRLAEMIPEFFYKNMIFALALFWYGIYNDFDGSYLYEYTYMMFYNLAFTSLPVIFLGILDQDVNDTISLVVPQLYRVGILRKEWNQRKFLWYMLDGLYQSIICFFFPYLVYHKNMIVTSNGLGLDHRYFVGVYVTTIAVISCNTYVLLHQYRWDWFSGLFIALSCLVVFAWTGIWSSAIASREFFKAAARIYGAPSFWAVFFVAVLFCLLPRFTYDSFQKFFYPTDVEIVREMWQHGHFDHYPPGYDPTDPNRPKVTKAGQHGEKIIEGIALSDNLGGSNYSRDSVVTEEIPMTFMHGEDGSPSGYQKQETWMTSPKETQDLLQSPQFQQAQTFGRGPSTNVRSSLDRTREQMIATNQLDNRYSVERARTSLDLPGVTNAASLIGTQQNN
B2: Serine/threonine-protein kinase YPK1 (Saccharomyces cerevisiae), P12688 (parent)
chain: MYSWKSKFKFGKSKEEKEAKHSGFFHSSKKEEQQNNQATAGEHDASITRSSLDRKGTINPSNSSVVPVRVSYDASSSTSTVRDSNGGNSENTNSSQNLDETANIGSTGTPNDATSSSGMMTIKVYNGDDFILPFPITSSEQILNKLLASGVPPPHKEISKEVDALIAQLSRVQIKNQGPADEDLISSESAAKFIPSTIMLPGSSTLNPLLYFTIEFDNTVATIEAEYGTIAKPGFNKISTFDVTRKLPYLKIDVFARIPSILLPSKTWQQEMGLQDEKLQTIFDKINSNQDIHLDSFHLPINLSFDSAASIRLYNHHWITLDNGLGKINISIDYKPSRNKPLSIDDFDLLKVIGKGSFGKVMQVRKKDTQKVYALKAIRKSYIVSKSEVTHTLAERTVLARVDCPFIVPLKFSFQSPEKLYFVLAFINGGELFYHLQKEGRFDLSRARFYTAELLCALDNLHKLDVVYRDLKPENILLDYQGHIALCDFGLCKLNMKDDDKTDTFCGTPEYLAPELLLGLGYTKAVDWWTLGVLLYEMLTGLPPYYDEDVPKMYKKILQEPLVFPDGFDRDAKDLLIGLLSRDPTRRLGYNGADEIRNHPFFSQLSWKRLLMKGYIPPYKPAVSNSMDTSNFDEEFTREKPIDSVVDEYLSESVQKQFGGWTYVGNEQLGSSMVQGRSIR

The variants in one experiment derive from B1. The conditions noted are these: with fpk1_yeast FPK1, P53739.
Target sequence in this assay (P53739 whole entry): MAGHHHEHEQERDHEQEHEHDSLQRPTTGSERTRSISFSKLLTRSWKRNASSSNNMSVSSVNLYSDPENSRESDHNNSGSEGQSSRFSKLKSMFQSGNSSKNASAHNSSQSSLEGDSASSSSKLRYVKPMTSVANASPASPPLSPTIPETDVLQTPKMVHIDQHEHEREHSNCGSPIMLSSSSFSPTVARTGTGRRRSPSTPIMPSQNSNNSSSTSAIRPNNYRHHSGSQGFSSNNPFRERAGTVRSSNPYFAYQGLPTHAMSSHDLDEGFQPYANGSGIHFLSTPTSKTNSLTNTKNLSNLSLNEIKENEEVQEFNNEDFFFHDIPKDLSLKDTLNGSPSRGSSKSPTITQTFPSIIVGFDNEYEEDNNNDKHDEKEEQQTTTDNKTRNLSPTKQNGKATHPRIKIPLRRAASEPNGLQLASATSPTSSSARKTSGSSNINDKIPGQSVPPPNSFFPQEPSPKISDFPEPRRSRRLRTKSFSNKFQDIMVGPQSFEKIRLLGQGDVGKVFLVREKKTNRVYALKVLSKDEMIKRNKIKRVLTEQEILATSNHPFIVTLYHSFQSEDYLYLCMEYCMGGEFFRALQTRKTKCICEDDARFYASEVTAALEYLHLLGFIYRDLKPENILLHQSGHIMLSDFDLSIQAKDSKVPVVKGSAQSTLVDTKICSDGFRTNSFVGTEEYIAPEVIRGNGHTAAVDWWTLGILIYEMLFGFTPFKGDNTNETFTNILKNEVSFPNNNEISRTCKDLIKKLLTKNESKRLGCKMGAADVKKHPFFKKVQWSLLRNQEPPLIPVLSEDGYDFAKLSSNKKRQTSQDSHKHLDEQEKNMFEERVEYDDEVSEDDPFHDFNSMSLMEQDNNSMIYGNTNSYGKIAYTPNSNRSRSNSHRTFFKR
Take S1526A;S1552A: the “effect of a mutation on the interaction” value was “decreasing interaction”.

Variants of B2 are the subject of a further experiment. The conditions noted are these: with fpk1_yeast FPK1, P53739.
Target sequence in this assay (P53739 whole entry): as above
With S51A;S71A, the “effect of a mutation on the interaction” value is “disrupting interaction”.
